# From article PMC9046087, “Structural basis of tethered agonism of the adhesion GPCRs ADGRD1 and ADGRF1” (Nature, 2022)
# System: ADGRD1
# Test: Cell-surface expression by flow cytometry, ADGRD1
# Assay type: cell-based, human
# Conditions: ADGRD1 constructs (pD1 Gs part of table), anti-Flag antibody, three independent measurements in duplicate
# Method: The wild-type ADGRD1 and ADGRF1 and mutants used in functional studies were constructed into a pTT5 vector with a Flag tag at the N terminus for receptor expression measurement. The basal activity of ADGRD1 and ADGRF1 in mediating Gs signalling was measured by a cAMP accumulation assay using a LANCE Ultra cAMP detection kit (PerkinElmer) following the manufacturer’s instruction. In brief, 2 ml HEK293F cells (Invitrogen; cells were routinely tested for mycoplasma contamination) at a density of 1.2 × 10^6 cells per ml were transiently transfected with 2,000 ng plasmid of the wild-type or mutant receptor and cultured at 37 °C for 48 h with 5% CO2 atmosphere in a shaker shaking at 220 rpm. After collection, the cell-surface expression of the receptors was measured by incubating 10 μl cells with 15 μl monoclonal anti-Flag M2-FITC antibody (Sigma; 1:120 diluted in TBS supplemented with 4% BSA and 20% viability staining solution 7-AAD (Invitrogen)) at 4 °C for 20 min. After incubation, 175 μl TBS buffer was added and the fluorescent signal was measured using a flow cytometry reader (Guava easyCyte HT, Millipore).
row,Molecule,Cell-surface expression (% of WT)
1,"Q798^7.49bA (protein, UniProt Q6QNK2 26-874, looked up, variant Q798A) Adhesion G-protein coupled …: VYSRSQDHPGFQVLASASHYWPLENVDGIHELQDTTGDIVEGKVNKGIYLKEEKGVTLLYYGRYNSSCISKPEQCGPEGVTFSFFWKTQGEQSRPIPSAYGGQVISNGFKVCSSGGRGSVELYTRDNSMTWEASFSPPGPYWTHVLFTWKSKEGLKVYVNGTLSTSDPSGKVSRDYGESNVNLVIGSEQDQAKCYENGAFDEFIIWERALTPDEIAMYFTAAIGKHALLSSTLPSLFMTSTASPVMPTDAYHPIITNLTEERKTFQSPGVILSYLQNVSLSLPSKSLSEQTALNLTKTFLKAVGEILLLPGWIALSEDSAVVLSLIDTIDTVMGHVSSNLHGSTPQVTVEGSSAMAEFSVAKILPKTVNSSHYRFPAHGQSFIQIPHEAFHRHAWSTVVGLLYHSMHYYLNNIWPAHTKIAEAMHHQDCLLFATSHLISLEVSPPPTLSQNLSGSPLITVHLKHRLTRKQHSEATNSSNRVFVYCAFLDFSSGEGVWSNHGCALTRGNLTYSVCRCTHLTNFAILMQVVPLELARGHQVALSSISYVGCSLSVLCLVATLVTFAVLSSVSTIRNQRYHIHANLSFAVLVAQVLLLISFRLEPGTTPCQVMAVLLHYFFLSAFAWMLVEGLHLYSMVIKVFGSEDSKHRYYYGMGWGFPLLICIISLSFAMDSYGTSNNCWLSLASGAIWAFVAPALFVIVVNIGILIAVTRVISQISADNYKIHGDPSAFKLTAKAVAVLLPILGTSWVFGVLAVNGCAVVFQYMFATLNSLAGLFIFLFHCLLNSEVRAAFKHKTKVWSLTSSSARTSNAKPFHSDLMNGTRPGMASTKLSPWDKSSHSAHRVDLSAV",96 ± 18 % of WT
2,"H605^2.50bA (protein, UniProt Q6QNK2 26-874, looked up, variant H605A) Adhesion G-protein coupled …: VYSRSQDHPGFQVLASASHYWPLENVDGIHELQDTTGDIVEGKVNKGIYLKEEKGVTLLYYGRYNSSCISKPEQCGPEGVTFSFFWKTQGEQSRPIPSAYGGQVISNGFKVCSSGGRGSVELYTRDNSMTWEASFSPPGPYWTHVLFTWKSKEGLKVYVNGTLSTSDPSGKVSRDYGESNVNLVIGSEQDQAKCYENGAFDEFIIWERALTPDEIAMYFTAAIGKHALLSSTLPSLFMTSTASPVMPTDAYHPIITNLTEERKTFQSPGVILSYLQNVSLSLPSKSLSEQTALNLTKTFLKAVGEILLLPGWIALSEDSAVVLSLIDTIDTVMGHVSSNLHGSTPQVTVEGSSAMAEFSVAKILPKTVNSSHYRFPAHGQSFIQIPHEAFHRHAWSTVVGLLYHSMHYYLNNIWPAHTKIAEAMHHQDCLLFATSHLISLEVSPPPTLSQNLSGSPLITVHLKHRLTRKQHSEATNSSNRVFVYCAFLDFSSGEGVWSNHGCALTRGNLTYSVCRCTHLTNFAILMQVVPLELARGHQVALSSISYVGCSLSVLCLVATLVTFAVLSSVSTIRNQRYHIAANLSFAVLVAQVLLLISFRLEPGTTPCQVMAVLLHYFFLSAFAWMLVEGLHLYSMVIKVFGSEDSKHRYYYGMGWGFPLLICIISLSFAMDSYGTSNNCWLSLASGAIWAFVAPALFVIVVNIGILIAVTRVISQISADNYKIHGDPSAFKLTAKAVAVLLPILGTSWVFGVLAVNGCAVVFQYMFATLNSLQGLFIFLFHCLLNSEVRAAFKHKTKVWSLTSSSARTSNAKPFHSDLMNGTRPGMASTKLSPWDKSSHSAHRVDLSAV",102 ± 7 % of WT
3,"K760^6.40bA (protein, UniProt Q6QNK2 26-874, looked up, variant K760A) Adhesion G-protein coupled …: VYSRSQDHPGFQVLASASHYWPLENVDGIHELQDTTGDIVEGKVNKGIYLKEEKGVTLLYYGRYNSSCISKPEQCGPEGVTFSFFWKTQGEQSRPIPSAYGGQVISNGFKVCSSGGRGSVELYTRDNSMTWEASFSPPGPYWTHVLFTWKSKEGLKVYVNGTLSTSDPSGKVSRDYGESNVNLVIGSEQDQAKCYENGAFDEFIIWERALTPDEIAMYFTAAIGKHALLSSTLPSLFMTSTASPVMPTDAYHPIITNLTEERKTFQSPGVILSYLQNVSLSLPSKSLSEQTALNLTKTFLKAVGEILLLPGWIALSEDSAVVLSLIDTIDTVMGHVSSNLHGSTPQVTVEGSSAMAEFSVAKILPKTVNSSHYRFPAHGQSFIQIPHEAFHRHAWSTVVGLLYHSMHYYLNNIWPAHTKIAEAMHHQDCLLFATSHLISLEVSPPPTLSQNLSGSPLITVHLKHRLTRKQHSEATNSSNRVFVYCAFLDFSSGEGVWSNHGCALTRGNLTYSVCRCTHLTNFAILMQVVPLELARGHQVALSSISYVGCSLSVLCLVATLVTFAVLSSVSTIRNQRYHIHANLSFAVLVAQVLLLISFRLEPGTTPCQVMAVLLHYFFLSAFAWMLVEGLHLYSMVIKVFGSEDSKHRYYYGMGWGFPLLICIISLSFAMDSYGTSNNCWLSLASGAIWAFVAPALFVIVVNIGILIAVTRVISQISADNYKIHGDPSAFKLTAAAVAVLLPILGTSWVFGVLAVNGCAVVFQYMFATLNSLQGLFIFLFHCLLNSEVRAAFKHKTKVWSLTSSSARTSNAKPFHSDLMNGTRPGMASTKLSPWDKSSHSAHRVDLSAV",126 ± 21 % of WT
4,"H656^3.53bA (protein, UniProt Q6QNK2 26-874, looked up, variant H656A) Adhesion G-protein coupled …: VYSRSQDHPGFQVLASASHYWPLENVDGIHELQDTTGDIVEGKVNKGIYLKEEKGVTLLYYGRYNSSCISKPEQCGPEGVTFSFFWKTQGEQSRPIPSAYGGQVISNGFKVCSSGGRGSVELYTRDNSMTWEASFSPPGPYWTHVLFTWKSKEGLKVYVNGTLSTSDPSGKVSRDYGESNVNLVIGSEQDQAKCYENGAFDEFIIWERALTPDEIAMYFTAAIGKHALLSSTLPSLFMTSTASPVMPTDAYHPIITNLTEERKTFQSPGVILSYLQNVSLSLPSKSLSEQTALNLTKTFLKAVGEILLLPGWIALSEDSAVVLSLIDTIDTVMGHVSSNLHGSTPQVTVEGSSAMAEFSVAKILPKTVNSSHYRFPAHGQSFIQIPHEAFHRHAWSTVVGLLYHSMHYYLNNIWPAHTKIAEAMHHQDCLLFATSHLISLEVSPPPTLSQNLSGSPLITVHLKHRLTRKQHSEATNSSNRVFVYCAFLDFSSGEGVWSNHGCALTRGNLTYSVCRCTHLTNFAILMQVVPLELARGHQVALSSISYVGCSLSVLCLVATLVTFAVLSSVSTIRNQRYHIHANLSFAVLVAQVLLLISFRLEPGTTPCQVMAVLLHYFFLSAFAWMLVEGLALYSMVIKVFGSEDSKHRYYYGMGWGFPLLICIISLSFAMDSYGTSNNCWLSLASGAIWAFVAPALFVIVVNIGILIAVTRVISQISADNYKIHGDPSAFKLTAKAVAVLLPILGTSWVFGVLAVNGCAVVFQYMFATLNSLQGLFIFLFHCLLNSEVRAAFKHKTKVWSLTSSSARTSNAKPFHSDLMNGTRPGMASTKLSPWDKSSHSAHRVDLSAV",86 ± 10 % of WT
